The values that follow come from patent publication US20200157537, “Modulating RNA Interactions with Polycomb Repressive Complex 1 (PRC1)” (The General Hospital Corporation, published 2020).

Data set [1] deals with T1, CBX7 (Mus musculus, UniProt Q8VDS3 Q8VDS3:1-158). Briefly: EMSA; low micromolar range, value only in figure; positive cooperativity; yeast tRNA, Mg2+, on ice. Conditions: tags: C-terminal Flag-HA; baculovirus Sf9, anti-FLAG M2 purified; label: radiolabelled. The method, then:
(§1) RNA-EMSA assays with CBX7 protein were performed as follows. Labeled RNAs were produced with MEGAscript® T7 Transcription Kit (Life Technologies) and purified from 6% acrylamide TBE-urea gels. Labeled RNAs were prefolded in buffer TE+300 mM NaCl by incubating for 2 min at 95° C., followed by 20 min incubation on ice. Binding reactions were assembled with 20 μl of binding mix (13 mM Tris pH 8.0, 0.2 mM EDTA, 68.8 mM NaCl, 20% Glycerol, 0.2 mg/ml Yeast tRNA, 4 mM DTT, 4 μl 2500 cpm/μl RNA probe). LNA oligonucleotides were added to binding mix at final concentration of 8 μM and samples were pre-incubated on ice for 10 min. After pre-incubation, binding mix samples were combined with 60 μl of purified protein in dialysis buffer (50 mM Tris pH 7.4, 5 mM MgCl₂, 50 mM NaCl, 1 mM DTT, 10% Glycerol, 4 u/μl Protector RNAse inhibitor (Roche)). Control experiments were performed with dialysis buffer only or control proteins—Flag-GFP or GST-Flag-HA, dissolved in dialysis buffer at the highest protein concentration in the particular experiment. After 30 min on ice, the sample was loaded onto a 5% 37:1 acrylamide (Bio-Rad) gel in 0.5× TBE buffer (45 mM Tris-Borate, 1 mM disodium EDTA) and run for 90 min at 250 V at 4° C. Gels were exposed to phosphorimager screens. […]

In data set [2] the target is GFP (control protein) (UniProt P42212 P42212:1-238). As to the kind of experiment: EMSA; control protein. Conditions: tags: Flag; label: radiolabelled. The method, then: RNA-EMSA assays with CBX7 protein were performed as follows. Labeled RNAs were produced with MEGAscript® T7 Transcription Kit (Life Technologies) and purified from 6% acrylamide TBE-urea gels. Labeled RNAs were prefolded in buffer TE+300 mM NaCl by incubating for 2 min at 95° C., followed by 20 min incubation on ice. Binding reactions were assembled with 20 μl of binding mix (13 mM Tris pH 8.0, 0.2 mM EDTA, 68.8 mM NaCl, 20% Glycerol, 0.2 mg/ml Yeast tRNA, 4 mM DTT, 4 μl 2500 cpm/μl RNA probe). LNA oligonucleotides were added to binding mix at final concentration of 8 μM and samples were pre-incubated on ice for 10 min. After pre-incubation, binding mix samples were combined with 60 μl of purified protein in dialysis buffer (50 mM Tris pH 7.4, 5 mM MgCl₂, 50 mM NaCl, 1 mM DTT, 10% Glycerol, 4 u/μl Protector RNAse inhibitor (Roche)). Control experiments were performed with dialysis buffer only or control proteins—Flag-GFP or GST-Flag-HA, dissolved in dialysis buffer at the highest protein concentration in the particular experiment. After 30 min on ice, the sample was loaded onto a 5% 37:1 acrylamide (Bio-Rad) gel in 0.5× TBE buffer (45 mM Tris-Borate, 1 mM disodium EDTA) and run for 90 min at 250 V at 4° C. Gels were exposed to phosphorimager screens. For validation of motif sequences, labeled RNA probes were produced with MEGAshortscript™ T7 Transcription Kit (Life Technologies) and gel purified using 15% TBE-urea gels (Life technologies) Similar RNA-EMSA conditions were applied except 8% 37:1 acrylamide (Bio-Rad) gels replaced 5% gels.

In data set [3] the target is T1, CBX7. Briefly: EMSA; low micromolar range, value only in figure; Hill coefficient suggests cooperativity, 2-3 sites; yeast tRNA, Mg2+, on ice; competed by cold Dcaf12l1. Conditions: tags: C-terminal Flag-HA; baculovirus Sf9, anti-FLAG M2 purified; label: radiolabelled. How it is done:
as §1

T1 sequence (Q8VDS3 whole entry, one chain of several): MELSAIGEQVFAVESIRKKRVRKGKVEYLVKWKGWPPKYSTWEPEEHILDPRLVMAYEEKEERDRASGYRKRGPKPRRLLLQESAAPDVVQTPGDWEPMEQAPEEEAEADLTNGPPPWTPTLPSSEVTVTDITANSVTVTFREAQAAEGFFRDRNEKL

B1: Calm2 3'UTR EMSA probe (ssRNA)
RNA: GUAGCUUUUAGGAACUGUCAGCAUGUUGUUGUUGAAGUGUGGAGCUGUAACUCUGCGUGGACUGUGGACAGUCAACAAUAUGUACUUAAAAGUUGCACUAUUGCAA
As to B1, the binding result was “binds” in data set [1] and “no binding” in data set [2].

B2: Dcaf12l1 3'UTR EMSA probe (ssRNA)
RNA: UCAAAUAGAGGAGCUGGGGAUUAAAAAGAUAGGUCUGAUUAAAGGACUGUGCAGUUCAGAUAAAUAGAGAUAAUGGGAUGCCGUGCGGAUAGAUUGGUUUUCUCC
Turning to B2, the binding result in data set [2] is recorded as “no binding”; in data set [3], “binds”.

B3: Dusp9 3'UTR EMSA probe (ssRNA)
RNA: GGCCACUUUGACUCGUGUAGACUCCUUCCUGCUUCUCUCACUAGGGCUUAGACUUCUUGGAACUGUAGGGUGUGAACCCAGAGAC
Consider B3, for which the results for the binding result in data set [1] and in data set [2] were “binds” and “no binding”, respectively.
